The source of these data is article PMC3349339 (Journal of Molecular Biology, 2012).

One experiment relates to wtDR1. The experiment can be described thus: Fluorescence polarization dissociation measurements, wtDR1. In kind it is binding, human. Conditions: FP peptide release, 37 °C, pH 5.
Experiment [1] concerns the target β81mut (HLA-DR1 with His→Asn substitution at position β81) (Homo sapiens, UniProt P01903+P01911, A100R/D57E/F55L/F60I/F76Y/H110N/I96L/L162R/M171V/P40L/Q125E/R42F/V115G/Y59C). Briefly: Fluorescence polarization dissociation measurements, β81mut. In kind it is binding. The following applies: FP peptide release, 37 °C, pH 5.
The target of experiment [2] is HLA-DR1 with a His→Asn substitution at position β81 (human). The experiment can be described thus: fluorescence polarisation.
Experiment [3] has the same target.

Turning to “P3,10 DG: HA306-319-derived peptide substituted at P3 and P10 (GPKYVDQNTLKLGT)”, the “Stable binding allowing off-rate measurements, wtDR1” value in the experiment with wtDR1 is “could bind in a stable fashion”. The “Stable binding allowing off-rate measurements, β81mut” value in experiment [1] is listed as “this was not possible”. The matching figures for “P2,3 SD: HA306-319-derived peptide substituted at P2 and P3 (GPKYSDQNTLKLAT)”: “could bind in a stable fashion” and “this was not possible”. In experiment [2], “fluorescein-labelled HA_(306-319) peptide” had a t1/2 of 77.3 h. HA_(306-319) peptide showed a Kd in experiment [3] of 0.0506 µM.
